The values below come from doi:10.1101/2024.12.23.630085, “Accurate sequence-to-affinity models for SH2 domains from multi-round peptide binding assays coupled with free-energy regression” (bioRxiv, 2025).

Non-standard residues stand in square brackets, D forms with d. No end group written: not given here. *: point of attachment. FITC = O=C1OC2(c3ccc(O)cc3Oc3cc(O)ccc32)c2ccc(NC(=S)*)cc21; pY = N[C@@H](Cc1ccc(OP(=O)(O)O)cc1)C(=O)O; Ahx = NCCCCCC(=O)O

Details in all cases: both partners purified
For one test, the target named is T1, Fyn SH2 domain (142-248) (human, UniProt P06241 142-248, biotin on the AviTag).
T1 construct: human Fyn kinase, SH2 domain, residues 142-248; source: E. coli C43(DE3) with BirA helper plasmid, purified (HisTrap, HiTrap Q, Superdex 75); not shown: His6-SUMO, N-terminal, cleaved; AviTag, C-terminal, kept
Description: fluorescence polarisation; competition mode: unlabelled phosphopeptide competes with a FITC-labelled probe phosphopeptide for the purified SH2 domain; probe KD first measured in direct mode; as described in ref. 33. In general terms: Fluorescence polarisation rises when a labelled molecule tumbles more slowly, as on binding a larger partner.

In another test the target is T2, Lyn SH2 domain (121-228) (human, UniProt P07948 121-228, biotin on the AviTag).
T2 construct: source: E. coli C43(DE3) with BirA helper plasmid, purified (HisTrap, HiTrap Q, Superdex 75); not shown: His6-SUMO, N-terminal, cleaved; AviTag, C-terminal, kept
The test is described as above.

The target of a further test is T3, Yes SH2 domain (150-257) (human, UniProt P07947 150-257, biotin on the AviTag).
T3 construct: human Yes kinase, SH2 domain, residues 150-257; source: E. coli C43(DE3) with BirA helper plasmid, purified (HisTrap, HiTrap Q, Superdex 75); not shown: His6-SUMO, N-terminal, cleaved; AviTag, C-terminal, kept
The test is described as above.

The next test has as its target T4, Blk SH2 domain (116-222) (human, UniProt P51451 116-222, biotin on the AviTag).
T4 construct: human Blk kinase, SH2 domain, residues 116-222; source: E. coli C43(DE3) with BirA helper plasmid, purified (HisTrap, HiTrap Q, Superdex 75); not shown: His6-SUMO, N-terminal, cleaved; AviTag, C-terminal, kept
The description is as above.

The next test has as its target T5, Grb2 SH2 domain (UniProt P62993 60-152, biotin (biotinylated SH2 domain of the selection)).
T5 construct: SH2 domain of the adapter protein Grb2; source: purified
Nature of the test: fluorescence polarisation; competition mode; unlabelled phosphopeptide against 30 nM FITC-Ahx-FDDPS(pY)VNVQN and 123 nM Grb2 SH2 (Table S3).

For the next test, the target named is T6, c-Src SH2 domain (UniProt P12931-1 151-248, biotin (biotinylated SH2 domain of the selection)).
T6 construct: SH2 domain of c-Src kinase; source: purified
Nature of the test: fluorescence polarisation; competition mode; unlabelled phosphopeptide against 30 nM FITC-Ahx-GDG-pY-EEISPLLL-NH2 and 122.745 nM c-Src SH2 (123.745 to 125.745 in three rows; Table S3).

T1 sequence (P06241 142-248): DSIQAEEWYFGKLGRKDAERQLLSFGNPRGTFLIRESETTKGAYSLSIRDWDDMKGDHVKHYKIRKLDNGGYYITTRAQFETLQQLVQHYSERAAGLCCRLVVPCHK
T3 sequence (P07947 150-257): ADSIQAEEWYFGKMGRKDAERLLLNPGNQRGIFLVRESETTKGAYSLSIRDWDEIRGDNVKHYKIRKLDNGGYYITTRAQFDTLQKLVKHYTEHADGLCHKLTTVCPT
T5 sequence (P62993 60-152): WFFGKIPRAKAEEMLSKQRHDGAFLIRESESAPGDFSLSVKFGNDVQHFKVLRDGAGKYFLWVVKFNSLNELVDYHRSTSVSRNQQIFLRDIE
T4 sequence (P51451 116-222): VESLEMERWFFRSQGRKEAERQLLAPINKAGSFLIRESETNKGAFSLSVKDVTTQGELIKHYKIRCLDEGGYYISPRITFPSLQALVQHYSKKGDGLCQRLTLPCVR
T2 sequence (P07948 121-228): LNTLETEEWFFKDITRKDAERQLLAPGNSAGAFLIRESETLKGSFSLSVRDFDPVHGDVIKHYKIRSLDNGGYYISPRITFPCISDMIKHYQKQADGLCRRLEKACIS

B1: FITC-Ahx-GDG(pY)EEISPLLL (peptide)
peptide: {FITC-Ahx}-GDG[pY]EEISPLLL
notes: c-Src SH2 consensus peptide; the Y is phosphotyrosine; also called c-Src SH2 consensus; probe; source: synthetic peptide (SynPeptide, China)
Regarding B1, the binding result with Fyn SH2 domain (142-248), with Lyn SH2 domain (121-228), with Yes SH2 domain (150-257) and with Blk SH2 domain (116-222) was “binds” in each case.

B2: Syn-G2-1 (synthetic) (peptide)
peptide: Ac-QKEAHH[pY]VNWRTG-NH2
notes: source: synthetic peptide (SynPeptide, China)
In the case of B2, the figures for the dissociation constant (Kd) with Grb2 SH2 domain and in the test with c-Src SH2 domain were 0.0318 µM and 9.66 µM, respectively.

One may read the Kd as the free concentration of one partner at which half of the binding sites on the other are occupied at equilibrium, for simple one-to-one binding. Read a low Kd as higher affinity.
